# Source: publication PMC3561454
# Biological target: Csk (UniProt P41240)
# Experiment: p140Cap IP, Csk western blot
# Settings: reference: wild type, sites Y264,Y396
binding against the reference,binding against the reference (FBS time course),Substance
lost,–,p140Cap (from UniProt Q9C0H9) Y264F/Y396F double mutant
–,lost,"p140Cap (from UniProt Q9C0H9) Y264F/Y396F double mutant, FBS time course"
